# In IntAct's records for PubMed 16956611:
# B1: Histone deacetylase 7 (Mus musculus), Q8C2B3 (parent)
# chain: MHSPGAGCPALQPDTPGSQPQPMDLRVGQRPTVEPPPEPALLTLQHPQRLHRHLFLAGLHQQQRSAEPMRLSMDPPMPELQGGQQEQELRQLLNKDKSKRSAVASSVVKQKLAEVILKKQQAALERTVHPSSPSIPYRTLEPLDTEGAARSVLSSFLPPVPSLPTEPPEHFPLRKTVSEPNLKLRYKPKKSLERRKNPLLRKESAPPSLRRRPAETLGDSSPSSSSTPASGCSSPNDSEHGPNPALGSEADGDRRTHSTLGPRGPVLGNPHAPLFLHHGLEPEAGGTLPSRLQPILLLDPSVSHAPLWTVPGLGPLPFHFAQPLLTTERLSGSGLHRPLNRTRSEPLPPSATASPLLAPLQPRQDRLKPHVQLIKPAISPPQRPAKPSEKPRLRQIPSAEDLETDGGGVGPMANDGLEHRESGRGPPEGRGSISLQQHQQVPPWEQQHLAGRLSQGSPGDSVLIPLAQVGHRPLSRTQSSPAAPVSLLSPEPTCQTQVLNSSETPATGLVYDSVMLKHQCSCGDNSKHPEHAGRIQSIWSRLQERGLRSQCECLRGRKASLEELQSVHSERHVLLYGTNPLSRLKLDNGKLTGLLAQRTFVMLPCGGVGVDTDTIWNELHSSNAARWAAGSVTDLAFKVASRELKNGFAVVRPPGHHADHSTAMGFCFFNSVAIACRQLQQHGKASKILIVDWDVHHGNGTQQTFYQDPSVLYISLHRHDDGNFFPGSGAVDEVGTGSGEGFNVNVAWAGGLDPPMGDPEYLAAFRIVVMPIAREFAPDLVLVSAGFDAAEGHPAPLGGYHVSAKCFGYMTQQLMNLAGGAVVLALEGGHDLTAICDASEACVAALLGNKVDPLSEESWKQKPNLSAIRSLEAVVRVHRKYWGCMQRLASCPDSWLPRVPGADAEVEAVTALASLSVGILAEDRPSERLVEEEEPMNL
# Variants of: B1
# Settings: with 1433e_mouse Ywhae
row,effect of a mutation on the interaction,Variant
1,disrupting interaction,S178E;S344E;S479E

# Variants of: B1
# Settings: with 1433e_mouse Ywhae
# Remark: another data set of the same source
row,effect of a mutation on the interaction,Variant
1,disrupting interaction,S178E;S344E;S479E

# Variants of: B1
# Settings: with mef2a_mouse Mef2a
row,effect of a mutation on the interaction,Variant
1,disrupting interaction strength,S178A;S344A;S479A
